Experiment [1] concerns the target T1, IL-10 receptor alpha (Mus musculus, UniProt Q61727).
T1 chain: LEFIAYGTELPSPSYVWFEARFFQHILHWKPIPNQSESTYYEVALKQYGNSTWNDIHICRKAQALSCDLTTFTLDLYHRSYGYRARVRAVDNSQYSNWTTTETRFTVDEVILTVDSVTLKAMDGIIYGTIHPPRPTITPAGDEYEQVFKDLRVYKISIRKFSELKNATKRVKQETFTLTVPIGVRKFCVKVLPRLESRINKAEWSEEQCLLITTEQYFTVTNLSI

The target in experiment [2] is T2, IL-10 receptor alpha (Homo sapiens, UniProt Q13651).
T2 chain: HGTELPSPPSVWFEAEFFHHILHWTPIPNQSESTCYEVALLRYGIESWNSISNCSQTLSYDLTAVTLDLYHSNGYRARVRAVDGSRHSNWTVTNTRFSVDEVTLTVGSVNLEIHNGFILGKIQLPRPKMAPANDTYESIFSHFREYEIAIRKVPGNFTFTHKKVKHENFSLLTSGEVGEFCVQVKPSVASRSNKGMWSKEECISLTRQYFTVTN

The values below come from paper PMC9251408 (2022).

B1: mFc-mIL-10 (mouse IL-10 mouse Fc-fusion) (protein)
chain: SRGQYSREDNNCTHFPVGQSHMLLELRTAFSQVKTFFQTKDQLDNILLTDSLMQDFKGYLGCQALSEMIQFYLVEVMPQAEKHGPEIKEHLNSLGEKLKTLRMRLRRCHRFLPCENKSKAVEQVKSDFNKLQDQGVYKAMNEFDIFINCIEAYMMIKMKS
modifications: IL-10 fused to C-terminus of effector-reduced mouse Fc via Gly-Ser linker
As usually defined, the Kd is a measure of binding affinity in units of concentration. Lower therefore signals a tighter complex. For the molecule B1, binding with IL-10 receptor alpha [1] was put at a Kd of 3.2 nM. This counts as single-digit nanomolar.

B2: hFc-hIL-10 (human IL-10 human Fc-fusion) (protein)
chain: SPGQGTQSENSCTHFPGNLPNMLRDLRDAFSRVKTFFQMKDQLDNLLLKESLLEDFKGYLGCQALSEMIQFYLEEVMPQAENQDPDIKAHVNSLGENLKTLRLRLRRCHRFLPCENKSKAVEQVKNAFNKLQEKGIYKAMSEFDIFINYIEAYMTMKIRN
modifications: IL-10 fused to C-terminus of effector-reduced human Fc via Gly-Ser linker
B2: the Kd worked out at 2.9 nM with IL-10 receptor alpha [1] and 0.6 nM with IL-10 receptor alpha [2].
